Consider one substance from patent US20260184768A1.

Assay [1] concerns the target full-length PcrV.6xhis (Pseudomonas aeruginosa). The assay can be described thus: SPR (Biacore T200), mAb captured via anti-human Fc, PcrV injected, 37 C.
The target is the same in assay [2]. The assay can be described thus: SPR (Biacore T200), mAb captured via anti-human Fc, PcrV injected, 25 C. (Surface plasmon resonance follows binding to a sensor surface in real time, without labels.)

As for REGN1932 (antibody), the values for the 90 nM Ag Bound (RU) in assay [1] and in assay [2] were -22.5 RU and -5.9 RU, respectively.
